Tested on: MS2 coat protein
Experiment: apparent KD of MS2 coat protein; designed switch direction (-1 OFF switch, 1 ON switch): 1; higher = weaker reporter binding
Method in brief: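 Three titration conditions were used: no input, 200 uM small-molecule ligand, and an oligonucleotide input. In each, SNAP-549-labelled MS2 coat protein was raised from 0.7 or 1.5 nM, doubling, to 3 µM over designed RNA switches transcribed on Illumina chips by stalled E. coli RNA polymerase. Curve fits of normalised cluster fluorescence gave values whose per-design median over clusters is the apparent KD.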

[1] = input ligand: microRNA oligo, concentration not stated
[2] = Eterna round: R95, input ligand: FMN 200 uM
[3] = Eterna round: R95, input ligand: microRNA oligo, concentration not stated
[4] = Eterna round: R95, input ligand: none

Row | Sequence | apparent KD of MS2 coat protein [1] [nM] | apparent KD of MS2 coat protein (input ligand: FMN 200 uM) [nM] | apparent KD of MS2 coat protein (input ligand: none) [nM] | apparent KD of MS2 coat protein [2] [nM] | apparent KD of MS2 coat protein [3] [nM] | apparent KD of MS2 coat protein [4] [nM]
1 | UUAAUGAUGUUAGGAUAUACAUGAGGAAUCCUCGUAGAAGGAACAUGACAUGAGGAUCACCCAUGUAACGCUCCGUAGAGCGUA [JL SSNG1 1.17] (Eterna round: R96, puzzle: Same State NG 1) | 44.7 | – | – | – | – | –
2 | CGUCGUUUGAUAGGAUAUCGCUUUCCAUGAGGAUCACCCAUGUUUACCACGCUGGUUUUUCUUUCCGAGAAGGAUUCUGAUGUU [salish99_SSNG02_r04_025] (Eterna round: R96, puzzle: Same State NG 2) | 143 | 169 | 153 | – | – | –
3 | GUGGAGAAUUAAGGAUAUUGAAUACAUAUGUUUAACAUGAGGAUCACCCAUGUGGGUUGCGGUAUCGAGAAGGUAAAUUACUGG [salish99_SSNG2_r04_033] (Eterna round: R96, puzzle: Same State NG 2) | 74.3 | 126 | 110 | – | – | –
4 | UUGCUCGUGUGAGGAUAUGCCGCCGUUUCGGCUGCAGAAGGUGCUACGUUACAUGAGGAUCACCCAUGUCUCUGUUGUUUCGUG [salish99_SSNG1_r04_941] (Eterna round: R96, puzzle: Same State NG 1) | 19.7 | 17.5 | 21.1 | – | – | –
5 | AGUCCAGCGAAAGCUGGACAAAGACAUGUACAUGAGGAUCACCCAUGUCAUGUACAAGUUUUUUGCUCGUCUUAUAA (puzzle: Sensor for hsa-mir-208a) | – | – | – | 34.4 | 12.7 | 35.8
6 | GGAUGACGGACAGGAUAUUGAUUCUAAUGGUUUCAAGAAGGGUCUUCGAUAUAAACGACCAGUUACAUGAGGAUCACCCAUGUU [JR_SSNG1_Sub033] (Eterna round: R96, puzzle: Same State NG 1) | 66 | 25.9 | 45 | – | – | –
7 | GCCAACUAAUGAGGAUAUGGCACCUUAUUGGUGCCAGAAGGCAUGUCAAAAGACAUGAGGAUCACCCAUGUAUUAUAGUUGGCA [Mat - Same State NG 1 - JL mod - D73] (Eterna round: R96, puzzle: Same State NG 1) | 62.5 | 25.5 | 304 | – | – | –
8 | GGGAGACCUCAAGGAUAUGCUACCGUUUCGGUAGCAGAAGGUGAUCACAUGAGGAUCACCCAUGUAUGCAUGCGUGAGCGUGCU [JL SSNG1 3.58] (Eterna round: R96, puzzle: Same State NG 1) | 11.6 | 79.4 | 67.8 | – | – | –
9 | UUGAGAUGUACAGGAUAUGGUGAGGAUCACCCACUAGAAGGGUGCACAUGUGAAUCGGACAUGAGGAUCACCCAUGUAGGGCGU (Eterna round: R96, puzzle: Same State NG 1) | 207 | 187 | 369 | – | – | –
10 | GGUAGGUUACUACCAAUCUACAUGAGGAUCACCCAUGUGUAGGAGGAUAUGGUACCUAUUUGGUACCAGAAGGCCUAAUUAAUU [Fiskers NG3ss - 9] (Eterna round: R96, puzzle: Same State NG 3) | 96.7 | 117 | 111 | – | – | –
11 | UAACGCGCAUGCAAGGAUAUGUGCAGAGCUACAUGAGGAUCACCCAUGUGGUUAUGCUAUUGAAAACAGAAGGUGCCCUCGCUCA [Ceties] (Eterna round: R96, puzzle: Same State 2) | 16.4 | 20.7 | 22.7 | – | – | –
12 | AGAAAAGUUUACGAGGAUAUGUUCCGCAUAACAUGAGGAUCACCCAUGUGAACAAGAAAGGCGACGCAGAAGGCGUGAGCAAAAG [Mat - Same State 2 - Mod of UCT - D98] (puzzle: Same State 2) | – | – | – | 38.8 | 82.1 | 116
